# Data: patent publication US10781262B2, “Combination therapy of T cell activating bispecific antigen binding molecules and PD-1 axis binding antagonists” (Hoffmann-La Roche Inc., priority 2014, dated 2020)
# B1: Mov19: reference molecule, the human FolR1 binder Mov19 (IgG) (antibody, V domains shown)
# VH: QVQLQQSGAELVKPGASVKISCKASGYSFTGYFMNWVKQSHGKSLEWIGRIHPYDGDTFYNQNFKDKATLTVDKSSNTAHMELLSLTSEDFAVYYCTRYDGSRAMDYWGQGTTVTVSS
# VL: DIELTQSPASLAVSLGQRAIISCKASQSVSFAGTSLMHWYHQKPGQQPKLLIYRASNLEAGVPTRFSGSGSKTDFTLNIHPVEEEDAATYYCQQSREYPYTFGGGTKLEIK
# Experiments:
# huFolR1-Fc = assay: SPR epitope binning; type: binding, human; conditions: label = immobilized binder; 500 nM; also: key: + means binding; − means no binding; +/− means weak binding
# Protocol: 500 nM huFolR1-Fc was then captured for 60 s, followed by 500 nM of the different binders for 30 s. The surface was regenerated with two injections of 10 mM glycine pH 2 for 30 s each.
# [1] = test system: cynomolgus Folate Receptor 1 (FolR1-Fc); conditions: bivalent binding (avidity), ligand cyFolR1
# Protocol: (§1) Binding of FolR1 binders as IgG or in the T-cell bispecific format to different recombinant folate receptors (human FolR1, 2 and 3, murine FolR1 and cynomolgus FolR1; all as Fc fusions) was assessed by surface plasmon resonance (SPR). All SPR experiments were performed on a Biacore T200 at 25° C. with HBS-EP as running buffer (0.01 M HEPES pH 7.4, 0.15 M NaCl, 3 mM EDTA, 0.005% Surfactant P20, Biacore, Freiburg/Germany).
# The avidity of the interaction between the anti-FolR1 IgGs or T cell bispecifics and the recombinant folate receptors was determined as described below (Table 9). Recombinant biotinylated monomeric Fc fusions of human, cynomolgus and murine Folate Receptor 1 (FolR1-Fc) were directly coupled on a SA chip using the standard coupling instruction (Biacore, Freiburg/Germany). The immobilization level was about 300-400 RU. The anti-FolR1 IgGs or T cell bispecifics were passed at a concentration range from 2.1 to 500 nM with a flow of 30 μL/minutes through the flow cells over 180 seconds. The dissociation was monitored for 600 seconds. […] The binding curves resulting from the bivalent binding of the IgGs or T cell bispecifics were approximated to a 1:1 Langmuir binding and fitted with that model (which is not correct, but gives an idea of the avidity). The apparent avidity constants for the interactions were derived from the rate constants of the fitting using the Bia Evaluation software (GE Healthcare).
# [2] = test system: cyno Folate Receptor 1 Fc fusion; conditions: monovalent binding (affinity), analyte cyFolR1
# Protocol: as §1
# (§2) For affinity measurement, direct coupling of around 6000-7000 resonance units (RU) of the anti-human Fab specific antibody (Fab capture kit, GE Healthcare) was performed on a CM5 chip at pH 5.0 using the standard amine coupling kit (GE Healthcare). Anti-FolR1 IgGs or T cell bispecifics were captured at 20 nM with a flow rate of 10 μl/min for 20 or 40 sec, the reference flow cell was left without capture. Dilution series (6.17 to 500 nM or 12.35 to 3000 nM) of human or cyno Folate Receptor 1 Fc fusion were passed on all flow cells at 30 μl/min for 120 or 240 sec to record the association phase. The dissociation phase was monitored for 240 s and triggered by switching from the sample solution to HBS-EP. The chip surface was regenerated after every cycle using a double injection of 60 sec 10 mM Glycine-HCl pH 2.1 or pH 1.5. Bulk refractive index differences were corrected for by subtracting the response obtained on the reference flow cell 1. The affinity constants for the interactions were derived from the rate constants by fitting to a 1:1 Langmuir binding using the Bia Evaluation software (GE Healthcare).
# [3] = molecular target: human Folate Receptor 1 Fc fusion (Homo sapiens, UniProt P15328); conditions: monovalent binding (affinity), analyte huFolR1
# Protocol: as §1, §2
# cynomolgus FolR1 = conditions: IgG injected for 60 seconds at 500 nM
# Protocol: as §1
# (§3) First the anti-FolR1 IgGs were analyzed by single injections (Table 1) to characterize their crossreactivity (to human, murine and cyno FolR1) and specificity (to human FolR1, human FolR2, human FolR3). Recombinant biotinylated monomeric Fc fusions of human, cynomolgus and murine Folate Receptor 1 (FolR1-Fc) or human Folate Receptor 2 and 3 (FolR2-Fc, FolR3-Fc) were directly coupled on a SA chip using the standard coupling instruction (Biacore, Freiburg/Germany). The immobilization level was about 300-400 RU. The IgGs were injected for 60 seconds at a concentration of 500 nM.
# murine FolR1 = murine FolR1 (Mus musculus, UniProt P35846); conditions: IgG injected for 60 seconds at 500 nM
# Protocol: as §1, §3
# human FolR3 = human FolR3 (Homo sapiens, UniProt P41439); conditions: IgG injected for 60 seconds at 500 nM
# Protocol: as §1, §3
# human FolR1 = human FolR1 (Homo sapiens, UniProt P15328); conditions: IgG injected for 60 seconds at 500 nM
# Protocol: as §1, §3
# human FolR2 = human FolR2 (Homo sapiens, UniProt P14207); conditions: IgG injected for 60 seconds at 500 nM
# Protocol: as §1, §3
# [4] = molecular target: T1, human Folate Receptor 1 (FolR1-Fc) (Homo sapiens, UniProt P15328); assay: SPR avidity to Folate Receptor 1 (bivalent binding); conditions: bivalent binding (avidity), ligand huFolR1
# T1 construct: the extracellular domain of the antigen linked to the hinge region of Fc-knob; made in house; host or cells: HEK293 EBNA
# From the text: The immobilization level was about 300-400 RU. […] The dissociation was monitored for 600 seconds.
molecule,measurement,setting,value
B1,binding of analyte in solution 9D11 TCB to huFolR1 captured on the immobilized binder,huFolR1-Fc,+/−
same,binding of analyte in solution 16D5 TCB to huFolR1 captured on the immobilized binder,huFolR1-Fc,+
same,binding of analyte in solution 21A5 TCB to huFolR1 captured on the immobilized binder,huFolR1-Fc,+
same,binding of analyte in solution 36F2 IgG to huFolR1 captured on the immobilized binder,huFolR1-Fc,−
same,binding of analyte in solution Farletuzumab to huFolR1 captured on the immobilized binder,huFolR1-Fc,−
same,binding of analyte in solution Mov19 IgG to huFolR1 captured on the immobilized binder,huFolR1-Fc,−
same,ka,[1],1.29e+06 M⁻¹ s⁻¹
same,kd,[1],0.000139 s⁻¹
same,ka,[2],297000 M⁻¹ s⁻¹
same,kd,[2],0.000193 s⁻¹
same,ka,[3],289000 M⁻¹ s⁻¹
same,kd,[3],0.000159 s⁻¹
same,Binding to cyFolR1,cynomolgus FolR1,+
same,Binding to muFolR1,murine FolR1,−
same,Binding to huFolR3,human FolR3,−
same,Binding to huFolR1,human FolR1,+
same,Binding to huFolR2,human FolR2,−
same,binding to erythrocytes,erythrocytes,could not observe any specific binding
same,ka,[4],861000 M⁻¹ s⁻¹
same,kd,[4],0.000121 s⁻¹
